The values below come from patent US20260297187 (published 2026).

The target in experiment [1] is T1, CEACAM1-his (human).
T1 chain: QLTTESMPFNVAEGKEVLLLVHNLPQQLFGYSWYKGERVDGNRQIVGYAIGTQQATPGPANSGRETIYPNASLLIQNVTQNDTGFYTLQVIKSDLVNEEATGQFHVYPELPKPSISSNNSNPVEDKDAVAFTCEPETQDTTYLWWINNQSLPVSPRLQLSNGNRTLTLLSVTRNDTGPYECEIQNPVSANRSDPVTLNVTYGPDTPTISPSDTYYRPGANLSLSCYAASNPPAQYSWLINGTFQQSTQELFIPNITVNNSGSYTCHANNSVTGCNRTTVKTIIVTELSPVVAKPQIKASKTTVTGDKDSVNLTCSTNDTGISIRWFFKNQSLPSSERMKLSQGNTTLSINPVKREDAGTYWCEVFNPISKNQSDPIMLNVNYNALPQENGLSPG
Kind of experiment: BLI. In general terms: In BLI a coated tip is dipped into the sample, and binding shifts an interference pattern.

The target in experiment [2] is T1, CEACAM1-his. Kind of experiment: BLI.

Like-named read-outs stand apart in the source and are kept apart here.

B1: h2C10.G4.H0aL0a (antibody, V domains shown)
VH: QVQLVQSGAEVKKPGASVKVSCKASGFAFTNYLIEWVRQAPGQGLEWMGVLNPGSGATNYNEKFKGRVTMTRDTSISTAYMELSRLRSDDTAVYYCARGIYGGYFAMDYWGQGTLVTVSS
VL: DIQMTQSPSSLSASVGDRVTITCRASQDITTYLNWYQQKPGKAPKLLIYYTSRLHSGVPSRFSGSGSGTDFTFTISSLQPEDIATYYCQQGNTLPRTFGQGTKVEIK
One may read the Kd as the concentration at which binding is half-saturated. Read a high Kd as a looser complex. B1 had a Kd in experiment [1] of 2.15 nM. In other words, the single-digit nanomolar range.

B2: h2C10.G4.H3L1 (antibody, V domains shown)
VH: QVQLVQSGAEVKKPGASVKVSCKASGFAFTNYLIEWVRQAPGQGLEWMGVLNPGSGATNYNEKFKGRVTMTADTSISTAYMELSRLRSDDTAVYYCARGIYGGYFAMDYWGQGTLVTVSS
VL: DIQMTQSPSSLSASVGDRVTITCRASQDITTYLNWYQQKPGKAPKLLIYYTSRLHSGVPSRFSGSGSGTDFTLTISSLQPEDIATYYCQQGNTLPRTFGQGTKVEIK
As for B2, binding in experiment [1] was characterised by a dissociation constant (Kd) of 2.18 nM.

B3: h2C10.G4.H3L4 (antibody, V domains shown)
VH: QVQLVQSGAEVKKPGASVKVSCKASGFAFTNYLIEWVRQAPGQGLEWMGVLNPGSGATNYNEKFKGRVTMTADTSISTAYMELSRLRSDDTAVYYCARGIYGGYFAMDYWGQGTLVTVSS
VL: DIQMTQSPSSLSASVGDRVTITCRASQDITTYLNWYQQKPGGAPKLLIYYTSRLHSGVPSRFSGSGSGTDFTLTISSLQPEDIATYYCQQGNTLPRTFGGGTKLEIK
In turn, B3 returned a Kd in experiment [1] of 2 nM.

B4: h2C10.G4.H0aL1 (antibody, V domains shown)
VH: QVQLVQSGAEVKKPGASVKVSCKASGFAFTNYLIEWVRQAPGQGLEWMGVLNPGSGATNYNEKFKGRVTMTRDTSISTAYMELSRLRSDDTAVYYCARGIYGGYFAMDYWGQGTLVTVSS
VL: DIQMTQSPSSLSASVGDRVTITCRASQDITTYLNWYQQKPGKAPKLLIYYTSRLHSGVPSRFSGSGSGTDFTLTISSLQPEDIATYYCQQGNTLPRTFGQGTKVEIK
Molecule B4 gave a Kd in experiment [1] of 1.81 nM. This Kd and that of the molecule before are within 1.5-fold of each other.

B5: h2C10.G4.H3L2 (antibody, V domains shown)
VH: QVQLVQSGAEVKKPGASVKVSCKASGFAFTNYLIEWVRQAPGQGLEWMGVLNPGSGATNYNEKFKGRVTMTADTSISTAYMELSRLRSDDTAVYYCARGIYGGYFAMDYWGQGTLVTVSS
VL: DIQMTQSTSSLSASVGDRVTITCRASQDITTYLNWYQQKPGGAPKLLIYYTSRLHSGVPSRFSGSGSGTDYTLTISSLQPEDIATYYCQQGNTLPRTFGGGTKLEIK
As for B5, the Kd in experiment [1] worked out at 0.927 nM.

B6: h2C10.G4.H0aL0b (antibody, V domains shown)
VH: QVQLVQSGAEVKKPGASVKVSCKASGFAFTNYLIEWVRQAPGQGLEWMGVLNPGSGATNYNEKFKGRVTMTRDTSISTAYMELSRLRSDDTAVYYCARGIYGGYFAMDYWGQGTLVTVSS
VL: DIQMTQSPSSLSASVGDRVTITCRASQDITTYLNWYQQKPGKAPKLLIYYTSRLHSGVPSRFSGSGSGTDFTLTISSLQPEDFATYYCQQGNTLPRTFGQGTKVEIK
Turning to B6, in experiment [1], the Kd worked out at 2.23 nM.

B7: h2C10.G4.H3L3 (antibody, V domains shown)
VH: QVQLVQSGAEVKKPGASVKVSCKASGFAFTNYLIEWVRQAPGQGLEWMGVLNPGSGATNYNEKFKGRVTMTADTSISTAYMELSRLRSDDTAVYYCARGIYGGYFAMDYWGQGTLVTVSS
VL: DIQMTQSPSSLSASVGDRVTITCRASQDITTYLNWYQQKPGGAPKLLIYYTSRLHSGVPSRFSGSGSGTDYTLTISSLQPEDIATYYCQQGNTLPRTFGGGTKLEIK
For the molecule B7, the Kd in experiment [1] came to 1.13 nM.

B8: h2C10.G4.H0aL3 (antibody, V domains shown)
VH: QVQLVQSGAEVKKPGASVKVSCKASGFAFTNYLIEWVRQAPGQGLEWMGVLNPGSGATNYNEKFKGRVTMTRDTSISTAYMELSRLRSDDTAVYYCARGIYGGYFAMDYWGQGTLVTVSS
VL: DIQMTQSPSSLSASVGDRVTITCRASQDITTYLNWYQQKPGGAPKLLIYYTSRLHSGVPSRFSGSGSGTDYTLTISSLQPEDIATYYCQQGNTLPRTFGGGTKLEIK
For B8, in experiment [1], the Kd worked out at 0.944 nM.

B9: h4D10.G4.H4(N56Q Y100V)L2 (antibody, V domains shown)
VH: QVQLVQSGAEVKKPGASVKVSCKASGYTFSSYVIHWVRQAPGQGLEWMGYFNPYNQGTNYNENFKGRVTMTADTSTSTVYMELSSLRSEDTAVYYCARYVYASGSLYFDYWGQGTTVTVSS
VL: DIQMTQSPSTLSASVGDRVTITCSASSSVSYMHWYQQKPGKAPKPLIYEISKLASGVPSRFSGSGSGTEFTLTISSLQPDDAATYYCQQWNYPLITFGGGTKVEIK
B9 showed a dissociation constant Kd in experiment [2] of 5.86 nM.

B10: h4D10.G4.H3L2 (antibody, V domains shown)
VH: QVQLVQSGAEVKKPGASVKVSCKASGYTFSSYVIHWVRQAPGQGLEWMGYFNPYNNGTNYNENFKGRVTMTADTSISTAYMELSRLRSDDTAVYYCARYYYASGSLYFDYWGQGTLVTVSS
VL: DIQMTQSPSTLSASVGDRVTITCSASSSVSYMHWYQQKPGKAPKPLIYEISKLASGVPSRFSGSGSGTEFTLTISSLQPDDAATYYCQQWNYPLITFGGGTKVEIK
Turning to B10, the Kd in experiment [1] came to 1.77 nM.

B11: h4D10.G4.H4(N56W Y100W)L2 (antibody, V domains shown)
VH: QVQLVQSGAEVKKPGASVKVSCKASGYTFSSYVIHWVRQAPGQGLEWMGYFNPYNWGTNYNENFKGRVTMTADTSTSTVYMELSSLRSEDTAVYYCARYWYASGSLYFDYWGQGTTVTVSS
VL: DIQMTQSPSTLSASVGDRVTITCSASSSVSYMHWYQQKPGKAPKPLIYEISKLASGVPSRFSGSGSGTEFTLTISSLQPDDAATYYCQQWNYPLITFGGGTKVEIK
On to B11, for which the affinity in experiment [2], expressed as Kd, was 3.39 nM.

B12: h4D10.G4.H4(N56I Y100V)L2 (antibody, V domains shown)
VH: QVQLVQSGAEVKKPGASVKVSCKASGYTFSSYVIHWVRQAPGQGLEWMGYFNPYNIGTNYNENFKGRVTMTADTSTSTVYMELSSLRSEDTAVYYCARYVYASGSLYFDYWGQGTTVTVSS
VL: DIQMTQSPSTLSASVGDRVTITCSASSSVSYMHWYQQKPGKAPKPLIYEISKLASGVPSRFSGSGSGTEFTLTISSLQPDDAATYYCQQWNYPLITFGGGTKVEIK
As to B12, in experiment [2], the affinity, expressed as Kd, was 6.22 nM.

B13: h4D10.G4.H4(N56W Y100F)L2 (antibody, V domains shown)
VH: QVQLVQSGAEVKKPGASVKVSCKASGYTFSSYVIHWVRQAPGQGLEWMGYFNPYNWGTNYNENFKGRVTMTADTSTSTVYMELSSLRSEDTAVYYCARYFYASGSLYFDYWGQGTTVTVSS
VL: DIQMTQSPSTLSASVGDRVTITCSASSSVSYMHWYQQKPGKAPKPLIYEISKLASGVPSRFSGSGSGTEFTLTISSLQPDDAATYYCQQWNYPLITFGGGTKVEIK
Regarding B13, the Kd in experiment [2] amounted to 1.13 nM.

B14: h4D10.G4.H4L1 (antibody, V domains shown)
VH: QVQLVQSGAEVKKPGASVKVSCKASGYTFSSYVIHWVRQAPGQGLEWMGYFNPYNNGTNYNENFKGRVTMTADTSTSTVYMELSSLRSEDTAVYYCARYYYASGSLYFDYWGQGTTVTVSS
VL: DIQLTQSPSFLSASVGDRVTITCSASSSVSYMHWYQQKPGKAPKPLIYEISKLASGVPSRFSGSGSGTEFTLTISSLQPEDAATYYCQQWNYPLITFGGGTKVEIK
B14 gave a Kd in experiment [1] of 1.53 nM.

B15: h4D10.G4.H3L1 (antibody, V domains shown)
VH: QVQLVQSGAEVKKPGASVKVSCKASGYTFSSYVIHWVRQAPGQGLEWMGYFNPYNNGTNYNENFKGRVTMTADTSISTAYMELSRLRSDDTAVYYCARYYYASGSLYFDYWGQGTLVTVSS
VL: DIQLTQSPSFLSASVGDRVTITCSASSSVSYMHWYQQKPGKAPKPLIYEISKLASGVPSRFSGSGSGTEFTLTISSLQPEDAATYYCQQWNYPLITFGGGTKVEIK
Turning to B15, the Kd in experiment [1] was determined as 1.46 nM.

B16: h4D10.G4.H4(N56V Y100W)L2 (antibody, V domains shown)
VH: QVQLVQSGAEVKKPGASVKVSCKASGYTFSSYVIHWVRQAPGQGLEWMGYFNPYNVGTNYNENFKGRVTMTADTSTSTVYMELSSLRSEDTAVYYCARYWYASGSLYFDYWGQGTTVTVSS
VL: DIQMTQSPSTLSASVGDRVTITCSASSSVSYMHWYQQKPGKAPKPLIYEISKLASGVPSRFSGSGSGTEFTLTISSLQPDDAATYYCQQWNYPLITFGGGTKVEIK
As to B16, the Kd in experiment [2] was found to be 4.87 nM.

B17: h4D10.G4.H0bL2 (antibody, V domains shown)
VH: QVQLVQSGAEVKKPGASVKVSCKASGYTFSSYVIHWVRQAPGQGLEWMGYFNPYNNGTNYNENFKGRVTMTRDTSTSTVYMELSSLRSEDTAVYYCARYYYASGSLYFDYWGQGTTVTVSS
VL: DIQMTQSPSTLSASVGDRVTITCSASSSVSYMHWYQQKPGKAPKPLIYEISKLASGVPSRFSGSGSGTEFTLTISSLQPDDAATYYCQQWNYPLITFGGGTKVEIK
With B17, the equilibrium dissociation constant (Kd) in experiment [1] is 2.28 nM. This counts as single-digit nanomolar.

B18: h4D10.G4.H4(N56V Y100F)L2 (antibody, V domains shown)
VH: QVQLVQSGAEVKKPGASVKVSCKASGYTFSSYVIHWVRQAPGQGLEWMGYFNPYNVGTNYNENFKGRVTMTADTSTSTVYMELSSLRSEDTAVYYCARYFYASGSLYFDYWGQGTTVTVSS
VL: DIQMTQSPSTLSASVGDRVTITCSASSSVSYMHWYQQKPGKAPKPLIYEISKLASGVPSRFSGSGSGTEFTLTISSLQPDDAATYYCQQWNYPLITFGGGTKVEIK
In experiment [2], B18 yielded an equilibrium dissociation constant (Kd) of 2.75 nM. This lies in the single-digit nanomolar range.

B19: h4D10.G4.H0bL1 (antibody, V domains shown)
VH: QVQLVQSGAEVKKPGASVKVSCKASGYTFSSYVIHWVRQAPGQGLEWMGYFNPYNNGTNYNENFKGRVTMTRDTSTSTVYMELSSLRSEDTAVYYCARYYYASGSLYFDYWGQGTTVTVSS
VL: DIQLTQSPSFLSASVGDRVTITCSASSSVSYMHWYQQKPGKAPKPLIYEISKLASGVPSRFSGSGSGTEFTLTISSLQPEDAATYYCQQWNYPLITFGGGTKVEIK
On to B19, for which the affinity in experiment [1], expressed as Kd, was 2.16 nM.

B20: h4D10.G4.H4(N56W Y100V)L2 (antibody, V domains shown)
VH: QVQLVQSGAEVKKPGASVKVSCKASGYTFSSYVIHWVRQAPGQGLEWMGYFNPYNWGTNYNENFKGRVTMTADTSTSTVYMELSSLRSEDTAVYYCARYVYASGSLYFDYWGQGTTVTVSS
VL: DIQMTQSPSTLSASVGDRVTITCSASSSVSYMHWYQQKPGKAPKPLIYEISKLASGVPSRFSGSGSGTEFTLTISSLQPDDAATYYCQQWNYPLITFGGGTKVEIK
Take B20: binding in experiment [2] was characterised by a dissociation constant (Kd) of 4.97 nM.
